Earlier results on one substance are cited in PMC7168109.

As a reminder, the Kd is the free concentration of one partner at which half of the binding sites on the other are occupied at equilibrium, for simple one-to-one binding.

The target in this data set is T1, PTK7 (tyrosine protein kinase 7, CCK4) on CCRF-CEM or Jurkat cells (UniProt Q13308).
T1 sequence: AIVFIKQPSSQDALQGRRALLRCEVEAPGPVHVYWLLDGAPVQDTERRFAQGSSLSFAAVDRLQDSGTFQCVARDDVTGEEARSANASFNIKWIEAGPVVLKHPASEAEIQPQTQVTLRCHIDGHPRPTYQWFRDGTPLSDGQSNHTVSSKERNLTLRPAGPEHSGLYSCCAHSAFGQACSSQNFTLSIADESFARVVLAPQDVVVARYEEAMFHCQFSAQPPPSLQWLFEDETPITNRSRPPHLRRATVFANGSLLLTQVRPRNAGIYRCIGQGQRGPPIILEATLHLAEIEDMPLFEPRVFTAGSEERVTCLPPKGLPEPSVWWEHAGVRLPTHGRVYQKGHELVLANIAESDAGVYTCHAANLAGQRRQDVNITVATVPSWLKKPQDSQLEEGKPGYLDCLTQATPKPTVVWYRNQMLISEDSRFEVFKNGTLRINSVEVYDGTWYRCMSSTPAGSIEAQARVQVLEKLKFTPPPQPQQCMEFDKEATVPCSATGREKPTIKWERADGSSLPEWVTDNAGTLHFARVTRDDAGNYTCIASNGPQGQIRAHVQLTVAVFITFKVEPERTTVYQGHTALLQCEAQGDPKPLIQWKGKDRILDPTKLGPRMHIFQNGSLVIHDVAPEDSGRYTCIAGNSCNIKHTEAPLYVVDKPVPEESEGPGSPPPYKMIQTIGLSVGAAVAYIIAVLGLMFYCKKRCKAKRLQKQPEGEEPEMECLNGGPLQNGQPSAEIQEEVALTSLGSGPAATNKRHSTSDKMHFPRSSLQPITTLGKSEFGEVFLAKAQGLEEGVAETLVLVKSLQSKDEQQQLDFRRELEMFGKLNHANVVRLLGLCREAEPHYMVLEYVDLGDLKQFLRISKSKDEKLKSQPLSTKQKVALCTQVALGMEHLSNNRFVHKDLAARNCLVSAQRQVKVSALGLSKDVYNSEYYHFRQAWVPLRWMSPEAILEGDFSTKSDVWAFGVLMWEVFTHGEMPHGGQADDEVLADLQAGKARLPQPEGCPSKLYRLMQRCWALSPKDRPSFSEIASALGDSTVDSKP
Description: cited, method not stated. The note with it: Flow cytometry on whole cells: 200 nM aptamer, 4 °C, 30 min in the dark, cells washed with PBS before incubation, three washes after; binding buffer and pH not …. (In flow cytometry, cells or beads pass a laser one at a time.)

As for Sgc8 (as cited), the Kd was 0.8 nM.
